According to patent EP1012281B1:

B1: charybdotoxin, P13487 23-59 (peptide)
peptide: QFTNVSCTTSKECWSVCQRLHNTSRGKCMNKKCRCYS
modifications: not checked

Tests used:
[1] = target: human lymph node derived calcium activated potassium channel polypeptide hKCa4, transiently expresse (human); experiment: cell-based or functional assay
[2] = target: cloned hKCa4 (SEQ ID NO:3) (human); experiment: cell-based or functional assay

Row | Molecule | Kd for block of KCa current, whole cell patch clamp [1] [nM] | IC50 as peptide blocker of the channel [2] [nM]
1 | apamin (from UniProt P01500 28-45) (peptide) | > 1000 | 
2 | iberiotoxin (from UniProt P24663 1-37) (peptide) | > 1000 | 
3 | kaliotoxin (from UniProt P24662 1-38) (peptide) | > 1000 | 
4 | scyllatoxin (from UniProt P16341 1-31) (peptide) | > 1000 | 
5 | B1 |  | 5 to 10
